Reference: the DeepSol protein solubility set

Assay: soluble on expression in E. coli; label from the status in PepcDB or PDB records
For “MSLKPIFGRGPSLQLRLFFAVMLSASLMLADSRLGAFSHVRFLLNSLVAPIQYAADLPRVLFDDFYDSISSHQQLRENNQLLKREVLTLKSNLLLLEQYKEENQRLRKLLGSSFLRDEKKVVTEVMAVDTSPYRHQVVIDKGRVDGVYEGQPIINEKGIVGQVTFVAAHNSRVLLLIDPNTAIPVQNIRNDIRVIASGNGQTDQIQLEHIPTSTDIEVGDMLVTSGLGGVYPEGYPVAIVSQVDKDTRREFASIKADPVVEFDRLRYLLLIWPNEDRLQKVMQADPQVLLEEEANAQEGHHHHHH”, the “soluble on expression in E. coli” value was “soluble”. In the case of “MLSLKLVSQLFKQSLASGNMAIVNTAGLKYFAPPIKYQNVEQPERPKLRVIERQPQLPPNIRPPKMQKRLRYMRGPEMVHNTLLHKQYAIVATGGGRLRWGHYEMMRLTIGRKMNVNTMFATWRVPAPWQPITKKGQGQRMGGGKGAIDHYVTPIKAGRVIVEIAGKCEFVEVKQFLQQVANQLPFQATVVSQEMLDEQRVAEEEQTRQNENPFTMKYVIQNNLSGCHRWLSPVDHKWFGKHLLEHHHHHH”, the “soluble on expression in E. coli” value was “not soluble”. With “VMPFTEHDKIILRSYEAVVDGIASLIGPFCEIVLHSLEDLNTSAIKIANGENTGRQVGSPITDLALKMLKDIEGSERNFSRSYFTRAKGGVLMKSITVAIRNGENRVIGLLCINVNLDAPFSQVLQSFMPTQEAKEAA” the “soluble on expression in E. coli” value was “soluble”. In the case of “MAGDPMIEVIGVRFKKAGKIYYFGPNGIEIKKGQNVIVETARGIEFGECVIGIRKISEEDIVAPLKSVLRLATEEDINKHKENKAKETEAFEICLKKIEEHNLVMKLIDVEYTFDNNKVIFYFTAEGRVDFRELVKDLATIFKTRIELRQIGVRDEAKMIGGLGPCGRPLCCSTFLGDFASVSIKMAKEQSLSLNPTKISGICGRLMCCLNYEQSTYEEIRKELPRVGSVVETELGKGEVVGNNVLKELVRVKLPRKNEEIIQDFKMYDVKLISGSYEGEVEDTNIRLEITDEADKALIKNLIKDNLEHHHHHH”, the “soluble on expression in E. coli” value was “soluble”. With “MGSSHHHHHHSSGLVPRGSHMASNVKKFPEGFLWGVATASYQIEGSPLADGAGMSIWHTFSHTPGNVKNGDTGDVACDHYNRWKEDIEIIEKLGVKAYRFSISWPRILPEGTGRVNQKGLDFYNRIIDTLLEKGITPFVTIYHWDLPFALQLKGGWANREIADWFAEYSRVLFENFGDRVKNWITLNEPWVVAIVGHLYGVHAPGMRDIYVAFRAVHNLLRAHARAVKVFRETVKDGKIGIVFNNGYFEPASEKEEDIRAVRFMHQFNNYPLFLNPIYRGDYPELVLEFAREYLPENYKDDMSEIQEKIDFVGLNYYSGHLVKFDPDAPAKVSFVERDLPKTAMGWEIVPEGIYWILKKVKEEYNPPEVYITENGAAFDDVVSEDGRVHDQNRIDYLKAHIGQAWKAIQEGVPLKGYFVWSLLDNFEWAEGYSKRFGIVYVDYSTQKRIVKDSGYWYSNVVKNNGLED” the “soluble on expression in E. coli” value was “soluble”. In the case of “MSAQVQDLTPIKGVTYYYPPHDAVLVFKDGAAEIPYGGLPVPLLEEDYASLDGEPSYDAVGRGVYQTLRTNPDCIHCAAYATLLRDAYPHYLAELASHAIMLDSKDVEVPYIDRKIVSLKVLSLLEPDNAGLPLEIGRAYLDRGLRLSALHMSTVSIYRAEHFLRRALELTPEDGRALRLLGEVCYLLGKYEEAASCWLDTLDLADADEAERFRVRLARISEGRLPLIAPVDYLEAIGAAFTCFHTGDYEEAVAILQDVLMDGIFCAEFPIADIHCVIGKSFVQLDMPRYAEESFRAALQLDPAHEESLACLRKVTGEELEHHHHHH”, the “soluble on expression in E. coli” value was “soluble”. In the case of “TRINLTLVSELADQHLMAEYRQLPRVFGAVRKHVANGKRVRDFKISPTFILGAGHVTFFYDKLEFLRKRQIELIAECLKRGFNIKDTTVQDISDIPQEFRGDYIPHEASIAISQARLDEKIAQRPTWYKYYGKAIYA”, the “soluble on expression in E. coli” value was “soluble”. In the case of “MKKIALAVLSLGLLVSGCSAGADKDEKVAEKSGKAKEQSVVPKYAISDEYYKTTIPFDGGNARGLVVQGLNSRLDIDEFETGLMRIAKESFSTKDNFLKGGKALDTQTIQMLVKRKRTDAEQKELEDKLKKDAVKFPNIGLNPALGTGSESLEVKNKKNPIYISNILEHDYYVKKGDNGEERVGMVVGLAMNSVQYFNEEHGYPREAAIPDEKMLAEGKKMAQEILKVIHQKEPETKNIPITFAIYRQAPKSSLVPGNFVSYANVEKGSETVEDWQQINEKYYLFPSEQAKTDNKREDLARVSNFKAKLSDYFQGDYTAVIGTGMYRDDELREMKLDIPVQFNGKAEIVGFTQYVAGLVMEYFPNYMKVQVTIKSVERPEAIIIREAKQDEPLVKILD”, the “soluble on expression in E. coli” value was “not soluble”. With “MSLAHKFDPSKIKKLDDPSRLELFDPEKVLKEFGLKEGMTVLDVGTGAGFYLPYLSKMVGEKGKVYAIDVQEEMVNYAWEKVNKLGLKNVEVLKSEENKIPLPDNTVDFIFMAFTFHELSEPLKFLEELKRVAKPFAYLAIIDWKKEERDKGPPPEEVYSEWEVGLILEDAGIRVGRVVEVGKYCFGVYAMIVKQEEENPLMNVPFKIPPGEGHHHHHH” the “soluble on expression in E. coli” value was “soluble”. In the case of “SLHSMTAFAADEHLTPWGLLACELRSVNHRFLDIVIRLPEELRALESQLRERVAARVSRGKLDLTVRLSPQEIHTGKLVVNELLLSHLSTLALRLSAQFPALRVTFAELLQIPGVLKGEQIDMTTLQGHAVALLDKVLDNFIATREREGLKMQAMIAQRASAIERIVGEVRTLIPTIREGQHNKLNARMNHLSYPVDHGRIEQELVLWLQ”, the “soluble on expression in E. coli” value was “not soluble”. With “MIFTYNKEHVGDVLMVIVKDSKGAKLNCERKGKVTRIFLEKNKETVAWNIFAVSNLLDLNGNGQVFLTDEELAVLNAELAKEGFEEKLENNAAAKFVVGEIVEMVAHPDSDHLNICQVKIAEDKTVQIVAGAPNARVGLKTIVALPGAMMPSGGLIFPGNLRGEKSFGMLCSPRELALPKAPQKRGIIELSTDAVIGQAFDAGKHWKGLEHHHHHH” the “soluble on expression in E. coli” value was “not soluble”. For “AMTGSDGTKILTITRPDTHGTKTSLTARLYSDTTKKATLDTIFTVVTSPDSDKAKMWGHMPETVTAADGAVFKRPLLLKELSSTSGRTAIAEDNEDWAQFTQAQAISTSSNGCGSEYVPSQAGLESLYEANRGNAMKTVQGWPVASSYLSSTTGSSSLEQRDFKAVNLSSGTSSIIPSATKELLTCQ”, the “soluble on expression in E. coli” value was “not soluble”. With “SITSTVLPPVYNQQNEDTCIIRISVEDNNGNMYKSIMLTSQDKTPAVIQRAMSKHNLESDPAEEYELVQVISEDKELVIPDSANVFYAMNSQVNFDFILRKKN” the “soluble on expression in E. coli” value was “soluble”. In the case of “MSLKYAWIDEQCRHYPLSALCEVLAVSINGYRAWKRGGTVQRKRLTDAQLLTLIRTIHAEVKGAYGSPRMTEEIRARGFPASKARVERLMSKNGIRARHKRRYRVTTDSKHKLPVAPNLLNRDFTPDAPNQVFSSDITYIWTDEGWLYLAVVLDLFNREVVGWSIKPRMTADLVTDALMMAWFRRKPAPGALHHSDRGSQYASHEFQRKLADYGMHCSMSRKGNCWDNAPTESFFNSLKNERVHATHYRTHREAAADLFEYIEVFYSRSRRHSSLGFVPPTQFLQDWLTAQQVKDAVAEGHHHHHH”, the “soluble on expression in E. coli” value was “not soluble”. In the case of “TSTKLNTTTSAAYLSTGIKALDSMLGSKGYQTGSQIIISGRSGTAKTLFATSFAQSAVRQGRKVLFISFEESPNDLIRHVKSINIDLMKYITKKKLHINSRRSVEMGLEDHIISIIELTEEKQFDVLILDPISALLDLGNTMEVKRLFIRFISYMKSLNKTLLFTELIPDYSKELTILGLSSLTETWIRLSNVESNGEFNRLIHIAKARGIKTSNQIKEFYVTDKGINIEAPYLGDNQMMFGSQKSA”, the “soluble on expression in E. coli” value was “not soluble”. For “MKRLDKKEALDLLHHASLTELGEMAYKRKLELHPEKITTFVVDRNINYTNVCCIDCSFCAFYRHHKEDDAYILSFEEIGKKIEELEAIGGTQILFQGGVHPKLKIEWYEELVSWIKEHYPNITVHGFSAVEIAYIAKASKISITEVLKRLQAKGLFSIPGAGAEVLSDRVRDIIAPNKCDTATWLEVHRQAHKIGMKSTATMMFGTVENDEEIIDHFEHLRKLQDETGGFRAFILWSFQSDNTALIQKHPEIMKQSSNKYLRLLALVRLYLDNFKNLQSSWVTQGSLIGQLALKFGANDLGSTMMEENVVSAAGASYRMNQDEMIRLIRSLGENPAKRNTAYEILERFLEHHHHHH”, the “soluble on expression in E. coli” value was “not soluble”.
